# Measured values from article PMC11761707 (Proceedings of the National Academy of Sciences of the …, 2025).
# Molecular target: the molecule itself
# Experiment: crystal structure
protein,measurement,value
"Nmar_1354, multicopper oxidase (MCO4 lineage) from Nitrosopumilus maritimus (enzyme) DSSDTFPKFKNPNPQTLSYTLIAQDAEIEVSPGVRAKVWTYNGTVPAPTLRFSEGDDVTVKFVNDTPYAHTIHFHGTHDSANDGVFPMIMPGEEYTYHFVAEEAGLFMYHCHAFPTSEHVRMGMFGTMIIDPAIRPMDPAREYFFTLSEFDPNNALEHFTEFYPINGYAGQYMDNPIRVVSGELTRFYVVGIGGVLQSPFHVHSTIMKVYPSGILWNEPYYAQTHLIGNGDTAIIEATWTQPGMYLFHVHGIQEERGSMAMIEVLEDASSLSDVQRPSNNKGSYSMVEWQEDLIRTLEQPQLISYENLGESAAISSEKVSADKVSIVKDSWNPEITESYDPIAIQVDSGTTVTWTNDDSVVHTVTDNENSFDSGFIQAGNTWSYSFDNPGEFDYICTLHPWMKGTISVN",stoichiometry N,3
